According to US20030153012A1:

Legend:
[1] = molecular target: hen egg white lysozyme (hen) (UniProt P00698); assay: fluorescence emission after addition of lysozyme, excitation at 469 nm, several preparations
[2] = molecular target: hen egg white lysozyme (hen) (UniProt P00698); assay: fluorescence at 535 nm, excitation at 480 nm, lysozyme 10 nM to 2 uM in 50 mM Tris-HCl, 150 mM NaCl, pH 7.5
[3] = molecular target: hen egg white lysozyme (hen) (UniProt P00698); assay: fluorescence emission, excitation at 469 nm, lysozyme at 100 nM and 1 uM, three preparations

Sequence of UniProt P00698 (P00698 19-147 limits assumed): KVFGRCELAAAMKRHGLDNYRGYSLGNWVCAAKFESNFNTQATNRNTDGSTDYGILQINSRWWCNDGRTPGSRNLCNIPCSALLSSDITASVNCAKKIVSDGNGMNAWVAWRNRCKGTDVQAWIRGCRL

fluorescence intensity at saturation relative to the free biosensor [1]: 1.26 times
increase of fluorescence intensity at saturation [2]: 91%
maximum enhancement of fluorescence [3]: 27%
B1: scFv-His6(VL-S93ANBD) conjugate (scFv)
scFv: EVKLQESGPGLVAPSQSLSITCTVSGFSLTGYGVNWVRQPPGKGLEWLGMIWGDGNTDYNSALKSRLSISKDNSKSQVFLKMNSLHTDDTARYYCARERDYRLDYWGQGTTVTVSSGGGGSGGGGSGGGGSDIELTQSPASLSASVGETVTITCRASGNIHNYLAWYQQKQGKSPQLLVYYTTTLADGVPSRFSGSGSGTQYSLKINSLQPEDFGSYYCQHFWCTPRTFGGGTKLEIKRPLEHHHHHH
modifications: chain 1 pos 224 (VL Cys93): Cys whose S-gamma is coupled to the fluorophore IANBD (ANBD adduct), written C
